± gives the uncertainty stated by the source.
B1: Ankyrin-1, residues 1405 to 1484; numbered along this chain, P16157 (parent)
chain: MKMAVISEHLGLSWAELARELQFSVEDINRIRVENPNSLLEQSVALLNLWVIREGQNANMENLYTALQSIDRGEIVNMLE
B2: Cyclin-F, residues 28 to 80; numbered along this chain, P41002 (parent)
chain: RNLTILSLPEDVLFHILKWLSVEDILAVRAVHSQLKDLVDNHASVWACASFQE

Variants of: B1
Experiment: abundance fitness (aPCA) (normalised: wild type 0, dead -1); higher = more abundant; growth selection in yeast, the domain comes from the species named
Conditions: Homo sapiens

Abundance fitness of substitutions, site by site:
I70: P -0.8 ± 0.19; L -0.762 ± 0.1; F -0.693 ± 0.2; W -0.99 ± 0.28; S -0.604 ± 0.13; M -0.651 ± 0.19; R -0.437 ± 0.078; G -0.911 ± 0.11; A -0.808 ± 0.16; D -0.881 ± 0.26; H -0.404 ± 0.45; C -0.384 ± 0.094; Y -0.152 ± 0.25; V -0.193 ± 0.054; T -0.651 ± 0.14
S69: C 0.056 ± 0.095; P -0.467 ± 0.13; R -0.006 ± 0.053; H 0.342 ± 0.18; D -0.06 ± 0.087; E -0.042 ± 0.068; V 0.029 ± 0.044; F -0.341 ± 0.11; I -0.047 ± 0.078; M -0.133 ± 0.089; L -0.161 ± 0.056; A -0.045 ± 0.051; K -0.035 ± 0.099; N -0.106 ± 0.11; Q -0.137 ± 0.11; W -0.291 ± 0.08
M78: F -0.146 ± 0.11; K 0.087 ± 0.11; G -0.085 ± 0.065; N -0.01 ± 0.15; D -0.013 ± 0.096; I 0.041 ± 0.12; S -0.121 ± 0.066; V 0.043 ± 0.061; C 0.065 ± 0.085; R 0.034 ± 0.051; A -0.003 ± 0.061; E -0.236 ± 0.14; Q -0.061 ± 0.098; T 0.085 ± 0.091; H -0.158 ± 0.15; L 0.001 ± 0.059; W -0.19 ± 0.075
L79: T -0.202 ± 0.096; R -0.528 ± 0.082; A 0.002 ± 0.064; I -0.019 ± 0.11; E -0.335 ± 0.11; D -0.54 ± 0.32; M 0.039 ± 0.082; P -0.3 ± 0.12; F -0.331 ± 0.14; C 0.045 ± 0.13; V 0.132 ± 0.049; G -0.379 ± 0.059; Q -0.115 ± 0.11; K -0.429 ± 0.21; S 0.014 ± 0.052; H -0.199 ± 0.15; Y -0.319 ± 0.14
V76: M -0.307 ± 0.097; C -0.051 ± 0.095; P -0.234 ± 0.12; F -0.528 ± 0.27; E -0.358 ± 0.094; W -0.388 ± 0.044; K -0.283 ± 0.14; H -0.465 ± 0.19; T -0.244 ± 0.067; G -0.566 ± 0.069; I 0.079 ± 0.13; Y -0.264 ± 0.11; A -0.423 ± 0.08; Q -0.505 ± 0.12; L -0.054 ± 0.06
N77: L -0.043 ± 0.07; K 0.03 ± 0.12; Y -0.215 ± 0.16; A 0.084 ± 0.061; E -0.111 ± 0.11; R 0.08 ± 0.065; H -0.175 ± 0.22; V -0.078 ± 0.11; D -0.347 ± 0.19; M -0.152 ± 0.12; C -0.479 ± 0.18; Q 0.148 ± 0.11; T 0.041 ± 0.082; S -0.005 ± 0.073; P -0.283 ± 0.11; W 0.018 ± 0.1
L67: W -0.999 ± 0.19; I -0.156 ± 0.14; Q -0.809 ± 0.26; A -0.895 ± 0.22; T -0.965 ± 0.29; G -0.852 ± 0.097; V -0.771 ± 0.11; H -0.911 ± 0.34; P -0.858 ± 0.26; M -0.092 ± 0.1; E -0.792 ± 0.21; S -0.829 ± 0.14; C -0.743 ± 0.28; F -0.788 ± 0.23; R -0.803 ± 0.097
I75: M -0.256 ± 0.17; Y -0.692 ± 0.36; V -0.098 ± 0.073; P -0.546 ± 0.14; T -0.342 ± 0.13; L -0.199 ± 0.08; F -0.785 ± 0.45; H -0.594 ± 0.27; W -0.663 ± 0.17; R -0.915 ± 0.14; C -0.734 ± 0.23; S -0.457 ± 0.1; G -0.509 ± 0.073; E -0.766 ± 0.23; D -0.54 ± 0.39
D71: C -0.144 ± 0.094; P -0.437 ± 0.11; G 0.095 ± 0.04; H -0.192 ± 0.18; F -0.627 ± 0.2; L -0.811 ± 0.095; N 0.006 ± 0.083; V -0.83 ± 0.12; Q -0.274 ± 0.11; W -0.827 ± 0.14; E 0.075 ± 0.075; R 0.008 ± 0.049; T -0.385 ± 0.15; A -0.229 ± 0.053; K -0.058 ± 0.079; S -0.213 ± 0.07; M -0.127 ± 0.14
A66: K -0.263 ± 0.12; H -0.151 ± 0.087; L -0.977 ± 0.11; W -0.99 ± 0.32; Y -0.494 ± 0.11; D -0.884 ± 0.15; P -0.1 ± 0.066; M -0.332 ± 0.2; C 0.016 ± 0.07; F -1.05 ± 0.48; G -0.197 ± 0.048; R -0.746 ± 0.1; E -0.85 ± 0.17; V -0.749 ± 0.097; Q -0.402 ± 0.21; N -0.562 ± 0.19; I -0.564 ± 0.28; T -0.794 ± 0.13; S -0.26 ± 0.069
E80: N -0.045 ± 0.14; S -0.056 ± 0.099; C -0.092 ± 0.099; D 0.164 ± 0.071; Y -0.048 ± 0.1; R -0.17 ± 0.13; P 0.049 ± 0.21; H -0.06 ± 0.11; V -0.154 ± 0.13; A -0.083 ± 0.081; F -0.023 ± 0.1; L -0.329 ± 0.12; G 0.126 ± 0.08; I -0.682 ± 0.26
R72: A -0.632 ± 0.1; C -0.146 ± 0.14; E -0.647 ± 0.11; H -0.15 ± 0.14; L -0.581 ± 0.087; M -0.356 ± 0.13; D -0.683 ± 0.17; Q -0.275 ± 0.1; S -0.57 ± 0.11; P -0.226 ± 0.13; G -0.499 ± 0.065; I -0.753 ± 0.22; T -0.797 ± 0.21
E74: R -0.65 ± 0.092; I -0.105 ± 0.19; D 0.16 ± 0.16; F -0.741 ± 0.28; H -0.082 ± 0.18; Q -0.45 ± 0.13; V -0.839 ± 0.15; K -0.471 ± 0.12; C -0.469 ± 0.16; L -0.562 ± 0.11; N -0.478 ± 0.17; A -0.364 ± 0.095; P -0.264 ± 0.1
Q68: I -0.097 ± 0.12; R -0.038 ± 0.05; F -0.178 ± 0.13; M -0.181 ± 0.094; G -0.152 ± 0.039; D -0.109 ± 0.11; Y -0.202 ± 0.14; K 0.169 ± 0.14; S -0.199 ± 0.062; H -0.029 ± 0.24; E -0.102 ± 0.082; C -0.235 ± 0.17; W -0.146 ± 0.071; A -0.012 ± 0.058; V -0.08 ± 0.054; N 0.003 ± 0.13; T -0.256 ± 0.11; P -0.767 ± 0.2
G73: N -0.33 ± 0.15; C -0.272 ± 0.096; W -0.29 ± 0.05; R -0.297 ± 0.04; P -0.205 ± 0.058; L -0.399 ± 0.036; S -0.192 ± 0.04; Y -0.339 ± 0.085; I -0.486 ± 0.13; E -0.24 ± 0.064; T -0.306 ± 0.054; F -0.284 ± 0.1; D -0.491 ± 0.11; Q -0.141 ± 0.066; V -0.172 ± 0.038; M -0.396 ± 0.085; A -0.17 ± 0.038; K -0.289 ± 0.079

Variants of: B2
Experiment: as above
Conditions: Homo sapiens

Abundance fitness: each site, then its substitutions
R1: V -0.465 ± 0.2; S 0.016 ± 0.15; W -0.914 ± 0.28; A -1.04 ± 0.42; K 0.091 ± 0.42; C -0.246 ± 0.16; L -0.305 ± 0.44; N 0.134 ± 0.27; M -0.359 ± 0.31; T -0.058 ± 0.13; I 0.032 ± 0.34; G -0.193 ± 0.12
I5: D -0.868 ± 0.14; L 0.12 ± 0.091; G -0.78 ± 0.097; C -0.692 ± 0.16; A -0.657 ± 0.11; Y -0.544 ± 0.18; F -0.254 ± 0.16; T -0.697 ± 0.17; K -0.758 ± 0.19; P -0.559 ± 0.15; H -0.771 ± 0.18; N -0.907 ± 0.19; S -1.04 ± 0.15; W -0.615 ± 0.15; E -0.679 ± 0.21; V -0.243 ± 0.087; M -0.254 ± 0.12
L3: N -0.337 ± 0.2; I -0.112 ± 0.17; G -0.435 ± 0.079; W -0.596 ± 0.1; P -0.322 ± 0.13; S -0.09 ± 0.098; T -0.437 ± 0.15; Y 0.109 ± 0.18; D -0.598 ± 0.21; H -0.283 ± 0.15; K -0.354 ± 0.16; R -0.134 ± 0.077; A -0.708 ± 0.13; F -0.078 ± 0.17; E -0.727 ± 0.16; Q -0.863 ± 0.31; M -0.276 ± 0.13; C -0.316 ± 0.094
T4: K -0.611 ± 0.22; N -0.046 ± 0.14; V -0.997 ± 0.15; Q -0.481 ± 0.15; C -0.55 ± 0.17; R -0.735 ± 0.1; A -0.768 ± 0.13; H -0.059 ± 0.14; D -0.076 ± 0.11; I -0.866 ± 0.23; W -0.65 ± 0.14; Y -0.85 ± 0.29; G -0.068 ± 0.082; S 0.087 ± 0.093; M -0.695 ± 0.17; E -0.605 ± 0.15; L -0.836 ± 0.13
N2: T -0.168 ± 0.11; I -0.618 ± 0.23; K -0.182 ± 0.13; Q -0.331 ± 0.14; R -0.078 ± 0.085; D -0.306 ± 0.19; W -0.871 ± 0.13; A -0.492 ± 0.14; E -0.348 ± 0.19; V -0.089 ± 0.11; S -0.129 ± 0.085; C -0.357 ± 0.12; H -0.065 ± 0.14; Y -0.366 ± 0.14; F -0.407 ± 0.19; P -0.185 ± 0.11
L6: Q -0.427 ± 0.15; D -0.593 ± 0.29; C -0.695 ± 0.13; H -0.691 ± 0.24; K -0.806 ± 0.18; S -0.885 ± 0.13; A -0.898 ± 0.15; T -0.486 ± 0.12; R -0.83 ± 0.099; E -0.889 ± 0.24; W -0.678 ± 0.12; V -0.665 ± 0.13; F -0.356 ± 0.16; P -0.674 ± 0.16; M -0.486 ± 0.15; N -0.691 ± 0.17

Reference: the Human Domainome abundance scans (Beltran et al. 2025)
